B1: Pseudomonas putida WCS358 PupR cytoplasmic anti-sigma domain (PupR-ASD), wild type (domain or fragment)
chain: GAMGMNGQGATSIPGEVAEQAMHWHLELQEPAVSAATLAACMSWRQAHPLHEHAWQRTQVFAQRLREMRSPGQRPLAHAALRPQQS
B2: PupR-ASD R53D (domain or fragment, Pseudomonas putida WCS358)
chain: GAMGMNGQGATSIPGEVAEQAMHWHLELQEPAVSAATLAACMSWRQAHPLHEHAWQDTQVFAQRLREMRSPGQRPLAHAALRPQQS
B3: PupR-ASD F57D (domain or fragment, Pseudomonas putida WCS358)
chain: GAMGMNGQGATSIPGEVAEQAMHWHLELQEPAVSAATLAACMSWRQAHPLHEHAWQRTQVDAQRLREMRSPGQRPLAHAALRPQQS
B4: PupR-ASD L61D (domain or fragment, Pseudomonas putida WCS358)
chain: GAMGMNGQGATSIPGEVAEQAMHWHLELQEPAVSAATLAACMSWRQAHPLHEHAWQRTQVFAQRDREMRSPGQRPLAHAALRPQQS
B5: PupR-ASD M18D (domain or fragment, Pseudomonas putida WCS358)
chain: GAMGMNGQGATSIPGEVAEQADHWHLELQEPAVSAATLAACMSWRQAHPLHEHAWQRTQVFAQRLREMRSPGQRPLAHAALRPQQS
B6: PupR-ASD L22D (domain or fragment, Pseudomonas putida WCS358)
chain: GAMGMNGQGATSIPGEVAEQAMHWHDELQEPAVSAATLAACMSWRQAHPLHEHAWQRTQVFAQRLREMRSPGQRPLAHAALRPQQS
B7: PupR-ASD A35D (domain or fragment, Pseudomonas putida WCS358)
chain: GAMGMNGQGATSIPGEVAEQAMHWHLELQEPAVSAATLDACMSWRQAHPLHEHAWQRTQVFAQRLREMRSPGQRPLAHAALRPQQS
B8: PupR-ASD M38D (domain or fragment, Pseudomonas putida WCS358)
chain: GAMGMNGQGATSIPGEVAEQAMHWHLELQEPAVSAATLAACDSWRQAHPLHEHAWQRTQVFAQRLREMRSPGQRPLAHAALRPQQS
B9: PupR-ASD Q42D (domain or fragment, Pseudomonas putida WCS358)
chain: GAMGMNGQGATSIPGEVAEQAMHWHLELQEPAVSAATLAACMSWRDAHPLHEHAWQRTQVFAQRLREMRSPGQRPLAHAALRPQQS

Tests used:
SEC = molecular target: the molecule itself; assay: SEC
AUC = molecular target: the molecule itself; assay: AUC

Row | Protein | stoichiometry N (SEC) | Kd (AUC)
1 | B1 | 2 | 10.2 µM
2 | B2 | – | 562 µM
3 | B3 | – | > 200 µM
4 | B4 | – | > 500 µM
5 | B5 | – | 226 µM
6 | B6 | – | > 200 µM
7 | B7 | – | 13.5 µM
8 | B8 | – | 11.6 µM
9 | B9 | – | 18.2 µM

Source: article PMC4701049 (Biochemistry, 2015)
